Measurements reported in paper doi:10.1101/2020.11.04.368837 (bioRxiv, 2020).

B1: recombinant human TRAP1 (mitochondrial Hsp90), wild type (natural protein, UniProt Q12931 60-704, looked up)
chain: STQTAEDKEEPLHSIISSTESVQGSTSKHEFQAETKKLLDIVARSLYSEKEVFIRELISNASDALEKLRHKLVSDGQALPEMEIHLQTNAEKGTITIQDTGIGMTQEELVSNLGTIARSGSKAFLDALQNQAEASSKIIGQFGVGFYSAFMVADRVEVYSRSAAPGSLGYQWLSDGSGVFEIAEASGVRTGTKIIIHLKSDCKEFSSEARVRDVVTKYSNFVSFPLYLNGRRMNTLQAIWMMDPKDVREWQHEEFYRYVAQAHDKPRYTLHYKTDAPLNIRSIFYVPDMKPSMFDVSRELGSSVALYSRKVLIQTKATDILPKWLRFIRGVVDSEDIPLNLSRELLQESALIRKLRDVLQQRLIKFFIDQSKKDAEKYAKFFEDYGLFMREGIVTATEQEVKEDIAKLLRYESSALPSGQLTSLSEYASRMRAGTRNIYYLCAPNRHLAEHSPYYEAMKKKDTEVLFCFEQFDELTLLHLREFDKKKLISVETDIVVDHYKEEKFEDRSPAAECLSEKETEELMAWMRNVLGSRVTNVKVTLRLDTHPAMVTVLEMGAARHFLRMQQLAKTQEERAQLLQPTLEINPRHALIKKLNQLRASEPGLAQLLVDQIYENAMIAAGLVDDPRAMVGRLNELLVKALERH
B2: TRAP1 fused with SpyCatcher at the C-terminus (TRAP1_(SpyCatcher)) (natural protein, human, UniProt Q12931 60-704, looked up)
chain: B1 chain

Legend:
AUC = target: the molecule itself; test: AUC
native gel or EMSA = target: the molecule itself; test: native gel or EMSA
[1] = target: the molecule itself; test: single-particle cryo-EM, 2D class averages

Protein	ratio between dimer and tetramer population (AUC)	stoichiometry N (native gel or EMSA)	stoichiometry N [1]
B1	7 dimer:tetramer (7:1)	4	
B2			4
